The target in experiment [1] is A/Singapore/INFIMH/16 (Sing/16) H3 hemagglutinin, recombinant HA-GCN4-2x sfGFP, glycosylated (influenza A virus A/Singapore/INFIMH/16 (H3N2)). The experiment in a line: cryo-EM structure.
For experiment [2], the target named is A/Singapore/INFIMH/16 (Sing/16) H3 hemagglutinin, recombinant HA-GCN4-2x sfGFP, treated with endo H (influenza A virus A/Singapore/INFIMH/16 (H3N2)). The experiment in a line: cryo-EM structure.

For the substance “A/Singapore/INFIMH/16 (Sing/16) H3 hemagglutinin, recombinant HA-GCN4-2x sfGFP, glycosylated (natural protein)”, in experiment [1], the stoichiometry N worked out at 3. In the case of “A/Singapore/INFIMH/16 (Sing/16) H3 hemagglutinin, recombinant HA-GCN4-2x sfGFP, treated with endo H (natural protein)”, in experiment [2], the stoichiometry N turned out to be 3.

By stoichiometry N is commonly meant the number of molecules, sites or subunits per partner or assembly.

The values are drawn from article PMC12749422.
